Experimental findings from article PMC8092405 (Proceedings of the National Academy of Sciences of the …, 2021) are described below.

For this test, the target named is human G protein-coupled receptor 182 (GPR182) (human, UniProt O15218 1-404).
human G protein-coupled receptor 182 (GPR182), sequence (O15218 whole entry): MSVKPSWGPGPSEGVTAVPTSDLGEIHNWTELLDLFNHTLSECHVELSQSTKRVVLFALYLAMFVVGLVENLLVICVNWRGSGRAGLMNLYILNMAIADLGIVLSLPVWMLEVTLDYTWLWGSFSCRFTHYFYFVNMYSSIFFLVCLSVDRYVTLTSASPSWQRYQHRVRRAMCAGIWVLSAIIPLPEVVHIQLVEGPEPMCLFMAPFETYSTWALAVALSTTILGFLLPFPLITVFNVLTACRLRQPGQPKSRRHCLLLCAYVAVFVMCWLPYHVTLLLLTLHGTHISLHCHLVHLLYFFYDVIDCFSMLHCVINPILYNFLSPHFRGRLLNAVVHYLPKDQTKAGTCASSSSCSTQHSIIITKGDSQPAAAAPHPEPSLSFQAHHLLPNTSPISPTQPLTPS

B1: human CCL19, unlabeled (ligand)
chain: GTNDAEDCCLSVTQKPIPGYIVRNFHYLLIKDGCRVPAVVFTTLRGRQLCAPPDQPWVERIIQRLQRTSAKMKRRSS
One may read the Ki as the equilibrium dissociation constant of an inhibitor or competing ligand from its target. Lower therefore signals a stronger hold on the target. With B1, the Ki was determined as 260 nM.

B2: human CXCL13, unlabeled (ligand)
chain: VLEVYYTSLRCRCVQESSVFIPRRFIDRIQILPRGNGCPRKEIIVWKKNKSIVCVDPQAEWIQRMMEVLRKRSSSTLPVPVFKRKIP
B2 yielded a Ki of 9 nM.
